Substitutions are numbered along the chain they refer to. Values belong to the molecule of their own block, whether it stands above or below them.
What was measured:
[1] = target: T1, human GPC3 (human, UniProt P51654 25-563); assay: SPR, antibody captured by Protein A/G
T1 construct: range 25-563; soluble analyte; also called soluble human GPC3; glypican 3
Protocol: The activity to bind human GPC3 when using GL4 (SEQ ID NO: 41) and L0000 (SEQ ID NO: 53) as the L-chain variable regions was evaluated. This was performed using the molecular form of a single-arm antibody having a single Fab at the Fc region of a human IgG1 heterodimerized by the knobs-into-hole technique. H0000 (SEQ ID NO: 40) was used for the anti-GPC3 antibody H-chain variable region.
The affinity and binding rate constants of an anti-GPC3 antibody for an antigen were measured by the multi-cycle kinetics method of a surface plasmon resonance assay using Biacore™-T200 (GE Healthcare Japan). HBS-EP+(GE Healthcare Japan) was used for the running buffer, and an amine coupling kit (GE Healthcare Japan) was used to covalently bind Protein A/G to the CM5 chip (carboxymethyl dextran-coated chip). […] Measurements were carried out by first allowing Protein A/G to capture the antibody solution, and then injecting the human GPC3 solution at a flow rate of […] for three minutes to allow reaction to take place. Then, the solution was switched to HBS-EP+ and the dissociation phase was measured for 15 minutes. After completion of the dissociation phase measurement, the sensor chip was regenerated by washing with 10 mM Gly-HCl at pH 1.5. Measurement at the concentration of 0 was similarly carried out by allowing Protein A/G to capture the antibody solution, performing a three-minute HBS-EP+ injection to allow reaction to take place, and then switching to HBS-EP+ to measure the dissociation phase for 15 minutes. After completion of the dissociation phase measurement, the sensor chip was regenerated by washing with 10 mM Gly-HCl at pH 1.5. A data analysis software exclusively for Biacore, Biacore T200 Evaluation Software Version 1.0, was used to perform kinetic analyses to calculate the binding rate constant (ka), dissociation rate constant (kd), and the rate constant ratio from the obtained sensorgrams.

[2] = target: T2, soluble human CD3 epsilon chain (human, UniProt P07766 23-126); assay: SPR, human CD3 on the chip
T2 construct: also called CD3ε
T2 sequence (P07766 23-126 limits assumed): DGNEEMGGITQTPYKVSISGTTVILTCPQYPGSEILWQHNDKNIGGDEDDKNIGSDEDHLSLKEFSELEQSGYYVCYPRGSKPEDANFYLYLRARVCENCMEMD
Protocol: The activity to bind human CD3 when using hCE115HA (SEQ ID NO: 52) as the H chain variable region and L0000 (SEQ ID NO: 53) as the L-chain variable region was evaluated. This was performed using the molecular form of a single-arm antibody having a single Fab at the Fc region of a human IgG1 heterodimerized by the knobs-into-hole technique.
The affinity and binding rate constants of an anti-CD3 antibody for an antigen were measured by the single-cycle kinetics method of a surface plasmon resonance assay using Biacore™-T200 (GE Healthcare Japan). HBS-EP+(GE Healthcare Japan) was used for the running buffer, and an amine coupling kit (GE Healthcare Japan) was used to covalently bind human CD3 to the CM4 chip (carboxymethyl dextran-coated chip). The anti-CD3 antibody used as the analyte was prepared at 5 and […] using HBS-EP+. Measurements were carried out by first injecting each of the 5- and 20-g/mL anti-CD3 antibody solutions for three minutes continuously at a flow rate of 20 L/min to allow reaction to take place. Then, the solution was switched to HBS-EP+ and the dissociation phase was measured for 3 minutes. After completion of the dissociation phase measurement, the sensor chip was regenerated by washing with 10 mM Gly-HCl at pH 1.5. Measurement at the concentration of 0 was carried out by performing each of the three-minute HBS-EP+ injections twice successively to allow reaction to take place, and then switching to HBS-EP+ to measure the dissociation phase for 3 minutes. After completion of the dissociation phase measurement, the sensor chip was regenerated by washing with 10 mM Gly-HCl at pH 1.5. A data analysis software exclusively for Biacore, Biacore T200 Evaluation Software Version 1.0, was used to perform kinetic analyses to calculate the binding rate constant (ka), dissociation rate constant (kd), and the rate constant ratio from the obtained sensorgrams.

[3] = target: T1, human GPC3; assay: SPR
[4] = target: T1, human GPC3; assay: SPR, single-arm antibody
[5] = test system: SK-HEP-1/hGPC3 (SK-pca31a) xenograft tumor; assay: In vivo drug efficacy, NOD scid/T cell-injected model, SK-pca31a; design: species or system NOD scid mice; details: 5 mg/kg once through the tail vein, compared to the vehicle-administered group
Protocol: Methods called an NOD scid/T cell-injected model, a humanized NOG mouse model, and a human CD3εδγ gene-modified mouse model were used in the in vivo drug efficacy evaluation. Assay using an NOD scid/T cell-injected model was performed as follows. […] T cells expanded by culturing human PBMCs in vitro were injected into the NOD scid mice with confirmed tumor establishment. The mice were treated by administering bispecific antibody-38 and bispecific antibody-30, -31, -32, or -33. Assay using a humanized NOG mouse model was performed as follows. CD34-positive hematopoietic stem cells derived from umbilical cord blood were transplanted into NOG mice by tail vein injection. Human T cells are constantly supplied in the mice, which are called humanized NOG mice. The PC-10 cell line was transplanted into humanized NOG mice. The humanized NOG mice with confirmed establishment of PC-10 tumor were treated by administering antibody-38. Assay using a human CD3εδγ gene-modified mouse model was performed as follows. Cells of mouse-derived cell line forced to express human GPC3 were transplanted into a human CD3εδγ gene-modified mouse model, which had been prepared according to Reference Example 10. The human CD3εδγ gene-modified mice with confirmed tumor establishment were treated by administering antibody-38.
The drug efficacy evaluation studies for bispecific antibody-38, and bispecific antibody-30, -31, -32, and -33 in NOD scid/T cell-injected model were performed as follows. T cell expansion culture was performed using PBMCs separated from blood collected from a healthy person and T cell activation/expansion kit/human. Each of human cancer cell lines (MKN74, FU-97, SNU-1, SCC152, KYSE70, PC-10, HuH-7, TOV-21G, RMG-1, and SK-pca31a (SK-HEP-1/hGPC3)) was mixed with Matrigel™ Basement Membrane Matrix, and transplanted subcutaneously into NOD scid mice (CLEA Japan). An in vivo-passaged line (STM-03) was transplanted as about 2-mm tumor tissue cubes subcutaneously into NOD scid mice (CLEA Japan). The day of transplantation was defined as Day 0. On the day before transplantation, anti-asialo GM1 antibody (Wako Pure Chemical Industries) was administered intraperitoneally at 0.2 mg/mouse. When tumor was clearly established after transplantation, the mice were separated into groups based on tumor size and body weight. Then, anti-asialo GM1 antibody was administered intraperitoneally at 0.2 mg/mouse again. On the following day, T cells obtained by the aforementioned expansion culture were transplanted intraperitoneally at 1.5×10^7 to 3×10^7 cells/mouse. About two to five hours after T cell transplantation, antibody-38 was administered at 1 mg/kg (MKN74, FU-97, SNU-1, SCC152, KYSE70, PC-10, HuH-7, TOV-21G, RMG-1, and STM-03) through the tail vein. The administration was performed only once. […]

T1 sequence (P51654 25-563 limits assumed): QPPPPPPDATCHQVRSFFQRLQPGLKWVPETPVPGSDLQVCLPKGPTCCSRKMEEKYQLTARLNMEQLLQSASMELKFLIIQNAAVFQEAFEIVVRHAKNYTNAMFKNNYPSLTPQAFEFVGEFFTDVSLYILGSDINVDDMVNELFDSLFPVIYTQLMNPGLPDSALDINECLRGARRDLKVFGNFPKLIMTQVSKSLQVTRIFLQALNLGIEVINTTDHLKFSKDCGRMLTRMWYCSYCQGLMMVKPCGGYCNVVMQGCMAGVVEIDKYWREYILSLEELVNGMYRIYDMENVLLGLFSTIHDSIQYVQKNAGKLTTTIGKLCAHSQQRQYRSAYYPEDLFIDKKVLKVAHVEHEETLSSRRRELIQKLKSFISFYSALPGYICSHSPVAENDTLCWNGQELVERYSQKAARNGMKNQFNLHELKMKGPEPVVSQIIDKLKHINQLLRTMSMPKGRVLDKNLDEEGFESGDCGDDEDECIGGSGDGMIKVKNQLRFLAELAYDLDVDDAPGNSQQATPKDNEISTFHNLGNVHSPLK

B1: H0000/GL4 single-arm antibody (antibody, human IgG1, V domains shown)
VH: QVQLVQSGAEVKKPGASVKVSCKASGYTFTDYEMHWIRQPPGQGLEWIGAIDPKTGDTAYSQKFKGRVTLTADKSTSTAYMELSSLTSEDTAVYYCTRFYSYTYWGQGTLVTVSS
VL: DIVMTQSPLSLPVTPGEPASISCRSSQSLVHSNRNTYLHWYQQKPGQAPRLLIYKVSNRFSGVPDRFSGSGSGTDFTLKISRVEAEDVGVYYCSQNTHVPPTFGQGTKLEIK
notes: single Fab on human IgG1 Fc heterodimerized by knobs-into-hole
Kd [1]: 4.2 nM | koff [1]: 0.0018 s⁻¹ | kon [1]: 430000 M⁻¹ s⁻¹

B3: H0000/L0000 single-arm antibody (antibody, human IgG1, V domains shown)
VH: B1 VH
VL: B1 VL with S94G, N96G, H98Q, P101Y
notes: as for B1
Kd [1]: 36 nM | koff [1]: 0.011 s⁻¹ | kon [1]: 300000 M⁻¹ s⁻¹

B8: antibody-30: optimized anti-human CD3ε chain and anti-human GPC3 bispecific antibody (antibody)
heavy 1: QVQLVESGGGLVQPGRSLRLSCAASGFTFSNAWMHWVRQAPGKGLEWVAQIKDKSQNYATYYAESVKGRFTISRDDSKNSLYLQMNSLKTEDTAVYYCRYVHYAAGYGVDAWGQGTTVTVSSASTKGPSVFPLAPCSRSTSESTAALGCLVKDYFPEPVTVSWNSGALTSGVHTFPAVLQSSGLYSLSSVVTVPSSSLGTKTYTCNVDHKPSNTKVDKRVESKYGPPCPPCPAPEFRGGPKVFLFPPKPKDTLMISRTPEVTCVVVDVSQEDPEVQFNWYVDGVEVHNAKTKPREEQFASTYRVVSVLTVLHQDWLNGKEYKCKVSNKGLPSSIEKTISKAKGQPREPQVYTLPPSQKEMTKNQVSLTCLVKGFYPSDIAVEWESNGQPENNYKTTPPVLDSDGSFFLYSKLTVDKSRWQEGNVFSCSVMHEALHNRYTQKSLSLSP
heavy 2: QVQLVQSGAEVKKPGASVTVSCKASGYTFTDYEMHWVRQAPGEGLEWMGAIDGETPDTAYSEKFKGRVTLTADKSTSTAYMELSSLTSEDTAVYYCTRFYSYTYWGQGTLVTVSSASTKGPSVFPLAPCSRSTSESTAALGCLVKDYFPEPVTVSWNSGALTSGVHTFPAVLQSSGLYSLSSVVTVPSSSLGTQTYTCNVDHKPSNTKVDKRVESKYGPPCPPCPAPEFRGGPKVFLFPPKPKDTLMISRTPEVTCVVVDVSQEDPEVQFNWYVDGVEVHNAKTKPREEQFASTYRVVSVLTVLHQDWLNGKEYKCKVSNKGLPSSIEKTISKAKGQPREPQVYTLPPSQEEMTKNQVSLTCLVKGFYPSDIAVEWESNGQPENNYKTTPPVLDSDGSFFLYSKLTVDKSRWQEGNVFSCSVMHEALHNHYTQESLSLSP
light: DIVMTQSPLSLPVTPGEPASISCRSSQPLVHSNRNTYLHWYQQKPGQAPRLLIYKVSNRFSGVPDRFSGSGSGTDFTLKISRVEAEDVGVYYCGQGTQVPYTFGQGTKLEIKRTVAAPSVFIFPPSDEQLKSGTASVVCLLNNFYPREAKVQWKVDNALQSGNSQESVTEQDSKDSTYSLSSTLTLSKADYEKHKVYACEVTHQGLSSPVTKSFNRGEC
anti-tumor effect [5]: evident anti-tumor effect

B9: antibody-33: optimized anti-human CD3ε chain and anti-human GPC3 bispecific antibody (antibody)
heavy 1: B8 heavy 1
heavy 2: B8 heavy 2 with V37I, A40P, M48I, E54P
light: B8 light
anti-tumor effect [5]: evident anti-tumor effect

B10: antibody-31: optimized anti-human CD3ε chain and anti-human GPC3 bispecific antibody (antibody)
heavy 1: B8 heavy 1 with L11V, R16G, D75A, L81I, A111I
heavy 2: B8 heavy 2
light: B8 light
anti-tumor effect [5]: evident anti-tumor effect

B11: antibody-32: optimized anti-human CD3ε chain and anti-human GPC3 bispecific antibody (antibody)
heavy 1: B8 heavy 1 with L11V, R16G, D75A, L81I, A111I
heavy 2: B8 heavy 2 with V37I, A40P, M48I, E54P
light: B8 light
anti-tumor effect [5]: evident anti-tumor effect

The next lines start with the values.

Kd [2]: 120 nM | koff [2]: 0.023 s⁻¹ | kon [2]: 190000 M⁻¹ s⁻¹
B2: hCE115HA/L0000 single-arm antibody (antibody, human IgG1, V domains shown)
VH: QVQLVESGGGVVQPGRSLRLSCAASGFTFSNAWMHWVRQAPGKGLEWVAQIKAKSNNYATYYAESVKGRFTISRDDSKNSLYLQMNSLKTEDTAVYYCRYVHYGAYYGVDAWGQGTTVTVSS
VL: B1 VL with S94G, N96G, H98Q, P101Y
notes: as for B1

Kd [3]: 3.88 nM | Kd [4]: 4.54 nM
B4: GCH094-G1dh/none-Hi-Kn010G3/L0011-k0 (antibody, V domains shown)
VH: B1 VH with K19T, I37V, P40A, Q43E, I48M, P53G, K54E, G56P, Q62E
VL: DIVMTQSPLSLPVTPGEPASISCRSSQPLVHSNRNTYLHWYQQKPGQAPRLLIYKVSNRFSGVPDRFSGSGSGTDFTLKISRVEAEDVGVYYCGQGTQVPYTFGQGTKLEIKR
notes: one-arm

Kd [3]: 3.97 nM | Kd [4]: 4.16 nM
B5: H0610-G1dh/none-Hi-Kn010G3/L0000-k0 (antibody, V domains shown)
VH: B1 VH with P53G, G56P
VL: B4 VL with P28S
notes: one-arm

Kd [3]: 5.25 nM | Kd [4]: 5.25 nM
B6: GCH054-G1dh/none-Hi-Kn010G3/L0011-k0 (antibody, V domains shown)
VH: B1 VH with K19T, Q43E, P53G, K54E, G56P, Q62E
VL: B4 VL
notes: one-arm

Kd [3]: 0.884 nM | Kd [4]: 0.884 nM
B7: GCH065-G1dh/none-Hi-Kn010G3/L0011-k0 (antibody, V domains shown)
VH: B1 VH with K19T, Q43E, P53G, K54P, G56P, Q62E
VL: B4 VL
notes: one-arm

— US20250066503A1, “CELL INJURY INDUCING THERAPEUTIC DRUG FOR USE IN CANCER THERAPY” (CHUGAI SEIYAKU KABUSHIKI KAISHA, priority 2016, published 2025)
